{"source": "paper PMC11266705", "about": "“Elf1 promotes transcription-coupled repair in yeast by using its C-terminal domain to bind TFIIH” (Nature Communications, 2024)", "key": {"[1]": {"biological_target": "p62 (Tfb1) PH domain (Saccharomyces cerevisiae) (UniProt P32776)", "details": "cited from earlier work"}, "[2]": {"biological_target": "p62 PH domain (Homo sapiens) (UniProt P32780)", "sequence (P32780 1-108)": "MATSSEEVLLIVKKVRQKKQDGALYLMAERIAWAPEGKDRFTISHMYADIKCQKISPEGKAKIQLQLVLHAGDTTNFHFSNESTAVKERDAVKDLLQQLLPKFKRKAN", "details": "cited from earlier work"}, "[3]": {"biological_target": "p62 PH domain (Homo sapiens) (UniProt P32780)", "details": "cited from earlier work", "remark": "listed apart in the source"}, "[4]": {"biological_target": "p62 PH domain (Homo sapiens) (UniProt P32780)", "details": "cited from earlier work", "remark": "listed apart in the source"}, "[5]": {"biological_target": "T1, PH domain (1–115) of TFIIH p62 subunit (S. cerevisiae, UniProt P32776 1-115)", "T1 construct": "also called PH domain of p62; p62 PH domain; source: E. coli Rosetta 2(DE3), purified (Glutathione Sepharose, released by PreScission protease cleavage)", "T1 sequence (looked up)": "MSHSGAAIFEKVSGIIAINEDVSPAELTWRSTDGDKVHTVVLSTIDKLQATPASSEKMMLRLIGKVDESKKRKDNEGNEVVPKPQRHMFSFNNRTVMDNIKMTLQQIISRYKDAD", "assay": "BLI; Octet K2; GST-Elf1-CTD immobilised on GST-specific biosensors; PH domain of p62 at 30, 15, 7.5, 3.75 and 0 µM; 20 mM Tris-HCl pH 7.5, 5% glycerol, 1 mM DTT; association 2 min, dissociation 3 min", "details": "both partners purified"}, "[6]": {"biological_target": "T1, PH domain (1–115) of TFIIH p62 subunit", "assay": "pull-down; GST beads with GST-tagged Elf1 proteins mixed with purified PH domain of p62; 23 °C, 1 h; washed twice in 20 mM HEPES pH 7.4, 5% glycerol; SDS-PAGE", "details": "both partners purified"}}, "note": "Like-named read-outs stand apart in the source and are kept apart here.", "data": [{"molecule": "Rad4 TIR (from UniProt P14736)", "values": [{"measurement": "Kd", "setting": "[1]", "value": 50, "unit": "nM"}]}, {"molecule": "UVSSA TIR (from UniProt Q2YD98)", "values": [{"measurement": "Kd", "setting": "[2]", "value": 71, "unit": "nM"}]}, {"molecule": "DP1 TIR (from UniProt Q14186)", "values": [{"measurement": "Kd", "setting": "[3]", "value": 35300, "unit": "nM"}]}, {"molecule": "TFIIEα TIR (from UniProt P29083)", "values": [{"measurement": "Kd", "setting": "[4]", "value": 45, "unit": "nM"}]}, {"molecule": "GST-Elf1-CTD (residues 85–145) (domain or fragment, S. cerevisiae, UniProt P36053 85-145, looked up, also called WT CTD; Elf1 C-terminal domain; source: E. coli Rosetta 2(DE3), purified (Glutathione Sepharose, Superdex 200)) GSDTDDGDEGSDSDYESDSEQDAKTQNDGEIDSDEEEVDSDEERIGQVKRGRGALVDSDDE", "values": [{"measurement": "Kd", "setting": "[5]", "value": 3820, "unit": "nM"}]}, {"molecule": "GSDTDDGDEGSDSDYESDSEQDAKTQNDGEIDSDEEEV (domain or fragment, S. cerevisiae, UniProt P36053 85-122, looked up, source: E. coli Rosetta 2(DE3), purified (Glutathione Sepharose, Superdex 200))", "note": "[GST-Elf1 residues 85–122]", "values": [{"measurement": "binding result", "setting": "[6]", "value": "binds"}]}, {"molecule": "GSDTDDGDEGSDSDYESDSEQDAKTQNDG (domain or fragment, S. cerevisiae, UniProt P36053 85-113, looked up, elongation factor-1 (Elf1), S. cerevisiae, residues 85-113 (truncated CTD); source: E. coli Rosetta 2(DE3), purified (Glutathione Sepharose, Superdex 200))", "note": "[GST-Elf1 residues 85–113]", "values": [{"measurement": "binding result", "setting": "[6]", "value": "binds"}]}, {"molecule": "GST-Elf1-CTD Y99A mutant (residues 85–145) (domain or fragment, S. cerevisiae, UniProt P36053 85-145, looked up, also called Y99A GST-Elf1-CTD; Y99A mutant CTD; source: E. coli Rosetta 2(DE3), purified (Glutathione Sepharose, Superdex 200)) GSDTDDGDEGSDSDAESDSEQDAKTQNDGEIDSDEEEVDSDEERIGQVKRGRGALVDSDDE", "values": [{"measurement": "Kd", "setting": "[5]", "value": 7320, "unit": "nM"}]}, {"molecule": "GST-Elf1-CTD I115A (residues 85–145) (domain or fragment, S. cerevisiae, UniProt P36053 85-145, looked up, also called I115A control; source: E. coli Rosetta 2(DE3), purified (Glutathione Sepharose, Superdex 200)) GSDTDDGDEGSDSDYESDSEQDAKTQNDGEADSDEEEVDSDEERIGQVKRGRGALVDSDDE", "values": [{"measurement": "binding result", "setting": "[6]", "value": "binds"}]}]}
